Assays:
[1] = biological target: D-sequence-binding protein (D-BP) (human); test: cell-based or functional assay
[2] = system: D-sequence-binding protein (D-BP), dephosphorylated form

| Substance | Ratio of dephosphorylated/phosphorylated ssD-BP, EGF-R-transfected 293 clone 293-4 [1] | Ratio of dephosphorylated/phosphorylated ssD-BP, EGF-R-transfected 293 clone 293-5 [1] | Ratio of dephosphorylated/phosphorylated ssD-BP, EGF-R-transfected 293 clone 293-6 [1] | Ratio of dephosphorylated/phosphorylated ssD-BP, EGF-R-transfected 293 clone 293-8 [1] | Ratio of dephosphorylated/phosphorylated ssD-BP, EGF-R-transfected 293 clone 293-12 [1] | Ratio of dephosphorylated/phosphorylated ssD-BP, control untransfected 293 cells [1] | Ratio of dephosphorylated/phosphorylated ssD-BPs, average of the EGF-R-transfected 293 cell clones [1] | in vitro phosphorylation assay followed by EMSA with the D(-) probe [2] |
| --- | --- | --- | --- | --- | --- | --- | --- | --- |
| human epidermal growth factor receptor (EGF-R) (from UniProt P00533 25-1210) | 0.31 | 0.45 | 0.36 | 0.51 | 0.64 | 3.5 | 0.45 | – |
| purified EGF-R PTK (CalBiochem) | – | – | – | – | – | – | – | incubation of the ssD-BP with the purified EGF-R PTK resulted in phosphorylation of this protein whereas incubation in the presence of ATP alone had no effect |

Reference: patent US7052692
